From patent US20160200815A1 (JOUNCE THERAPEUTICS, published 2016)

Legend:
Experiment in all cases: ELISA, construct coated on plate
hTIM3-Fc murine DE loop = molecular target: T1, hTIM3-Fc murine DE loop (human, DE loop replaced by mouse TIM-3)
T1 construct: Whole construct: chimeric ECD, linker and human IgG1 Fc; also called hTIM3-Fc DE loop chimera

hTIM3-Fc murine FG loop = molecular target: T2, hTIM3-Fc murine FG loop (human, FG loop replaced by mouse TIM-3)
T2 construct: Whole construct: chimeric ECD, linker and human IgG1 Fc; also called hTIM3-Fc FG loop chimera

hTIM3-Fc murine BC loop = molecular target: T3, hTIM3-Fc murine BC loop (human, BC loop replaced by mouse TIM-3)
T3 construct: Whole construct: chimeric ECD, linker and human IgG1 Fc; also called hTIM3-Fc BC loop chimera

hTIM3-Fc WT = molecular target: T4, hTIM3-Fc WT (human)
T4 construct: also called hTIM-3-hFc

hTIM3-Fc murine CC′ loop = molecular target: T5, hTIM3-Fc murine CC′ loop (human, CC′ loop replaced by mouse TIM-3)
T5 construct: Whole construct: chimeric ECD, linker and human IgG1 Fc; also called hTIM3-Fc CC′ loop chimera

[1] = molecular target: T6, hTIM3-Fc murine C′C″ loop (human, C′C″ loop replaced by mouse TIM-3)
T6 construct: Whole construct: chimeric ECD, linker and human IgG1 Fc; also called hTIM3-Fc C′C″ loop chimera

B1: mAb15 (antibody, V domains shown)
VH: QVQLKESGPGLVAPSQSLSITCTVSGFSLTGYGVTWVRQPPGKGLEWLGMIWGDGNTDYNSGLKSRLNISKDNSKSQVFLKMNSLQTDDTARYYCARSYYYGPPDYWGQGTTLTVSS
VL: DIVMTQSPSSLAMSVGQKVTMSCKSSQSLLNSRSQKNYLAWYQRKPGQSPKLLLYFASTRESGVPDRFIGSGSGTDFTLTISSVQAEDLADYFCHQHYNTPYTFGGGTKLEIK
notes: also called JTx mAb 15; TIM-3 mAb15
Absorbance at 450 nm (hTIM3-Fc murine DE loop): 1.29 A450

B2: mAb22 (antibody, V domains shown)
VH: EVQLVESGGDLVKPGGSLKLSCAASGFTFSNHGMSWVRQTPDKRLEWVATISSGGSNTYFPDSVKGRFTISRDNVKNSLYLQMSSLKSEDTAMYYCARHGTSMIKEWFAYWGQGTLVTVSA
VL: DIVMTQSPVTLSVTPGDRVSLSCRASQSIGDYLHWYQQKSHESPRLLIKYASQSISGIPSRFSGSGSGSDFTLNINSVEPEDVGVYYCQHSHSFPPTFGGGTRLEIK
notes: Mouse hybridoma antibody
Absorbance at 450 nm (hTIM3-Fc murine FG loop): 2.22 A450 | Absorbance at 450 nm (hTIM3-Fc murine BC loop): 2.06 A450 | Absorbance at 450 nm (hTIM3-Fc WT): 2.13 A450 | Absorbance at 450 nm (hTIM3-Fc murine CC′ loop): 0.91 A450

B3: mAb58 (antibody, V domains shown)
VH: QIQLVQSGPELKKPGETVKISCKASGYTFTTYGMSWVKQAPGKGLKLMGWINTYSGAPTYADDFKGRFAFSLETSASAAYLQINNLKNEDTATYFCARKPPHYYVNSFDYWGQGTTLTVSS
VL: DIVMTQSPATLSVTPGDRVSLSCRASQSISDYLHWYQQKSHESPRLLIKYASQSISGIPSRFSGSGSGSDFTLSINSVEPEDVGVYYCQNGHSFPYTFGGGTKLEIK
Absorbance at 450 nm (hTIM3-Fc murine DE loop): 0.855 A450 | Absorbance at 450 nm (hTIM3-Fc murine FG loop): 1.9 A450 | Absorbance at 450 nm (hTIM3-Fc murine BC loop): 1.83 A450 | Absorbance at 450 nm (hTIM3-Fc WT): 1.39 A450 | Absorbance at 450 nm [1]: 0.338 A450 | Absorbance at 450 nm (hTIM3-Fc murine CC′ loop): 1.39 A450

B4: mAb48 (antibody, V domains shown)
VH: QIQLQQSGPELVTPGTSVKISCKASGYTFTDYYINWVKQRPGQGLEWIGWIYPGSGNTKYNEKFKGKATLTVDTSSSIAYMHLSSLTSEDSAVYFCAGDRFDYWGQGTTLTVSS
VL: QIVLTQSPAIMSASPGEKVTLTCSASSGVSSSYLYWYQQKPGSSPKLWIYSTSNLASGVPARFSGSGSGTSYSLTISNMETEDAASYFCHQWSNSPYTFGGGTKLEIK
notes: Mouse hybridoma antibody
Absorbance at 450 nm (hTIM3-Fc murine FG loop): 1.53 A450 | Absorbance at 450 nm (hTIM3-Fc murine BC loop): 1.3 A450 | Absorbance at 450 nm (hTIM3-Fc WT): 1.39 A450 | Absorbance at 450 nm (hTIM3-Fc murine CC′ loop): 0.247 A450

B5: mAb91 (antibody, V domains shown)
VH: DVQFQESGPGLVKPSQSLSLTCSVTGYSITSGYYWNWIRQFPGNKLEWMGYISYDGSNNYNPSLKNRISITRDTSKNQFFLKLNSVTTEDTATYYCGRDGPYYYGSSYGYFDVWGTGTTVTVSS
VL: DIVMTQAESSVPVTPGESVSISCRSSKSLLHSNGNTYLYWFLQRPGQSPQLLIHRMSNLASGVPDRFSGSGSGTAFTLRISRVEAEDMGVYYCMQHLEYPCTFGGGTKLEIK
notes: Mouse hybridoma antibody
Absorbance at 450 nm (hTIM3-Fc murine DE loop): 1.01 A450 | Absorbance at 450 nm (hTIM3-Fc murine FG loop): 1.74 A450 | Absorbance at 450 nm (hTIM3-Fc murine BC loop): 1.44 A450 | Absorbance at 450 nm (hTIM3-Fc WT): 1.57 A450 | Absorbance at 450 nm (hTIM3-Fc murine CC′ loop): 0.502 A450
